In the supplement of paper PMC10126150:
± gives the standard deviation of the averaged measurements.

Tested on: ATP
Experiment: switch fluorescence ratio, 500 uM ATP over buffer (Cy3 cluster intensity, sum of 5 cycles each) (fold (ratio)); higher = stronger signal-on switching upon ATP binding; sequences stand for … in TCGTCGGCAGCGTCAGATGTGTATAAGAGACAGTTTTTTTTTTTTTTTTTTTTTTTTT…TC
Settings: aptamer strand: ATP DNA aptamer (quencher-CACCTGGGGGAGTATTGCGGAGGAAGG + anchor), 100 nM annealed; ATP concentration: 500 uM
Procedure, shortened: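 The fluorescence ratio divides summed target-cycle Cy3 intensity by summed buffer-cycle Cy3 intensity for each cluster and is averaged per switch-domain sequence. Cy3-labelled switching-strand clusters on a modified Illumina MiSeq flow-cell were annealed to 100 nM quencher-labelled ATP aptamer, then imaged in selection buffer and again after 15 min with 500 uM ATP at 22 °C. Five such cycles were run, with NaOH stripping and re-annealing between them, and clusters outside 100-1000 RFU were excluded.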
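Also: ATP exposure 15 min at 22 °C before imaging.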

Sequence | switch fluorescence ratio
TATTTGGGGC | 1.01 ± 0.058
AAATGACAGT | 1.01 ± 0.028
AAATAGGTG | 1.12 ± 0.058
TTTGTAAGAA | 1.009 ± 0.006
GTGATACTGG | 1.04 ± 0.014
GGCTTTTTTG | 0.9954 ± 0.0081
ATCTTTATAT | 0.994 ± 0.019
CGCTGGACGG | 1.023 ± 0.0098
CAATGCGACA | 1.39 ± 0.078
ATCGCGTCGT | 0.995 ± 0.035
GTGTATAGGA | 0.98611 ± 0.00034
TTTTTTACAT | 1.01 ± 0.018
ATAATAGGGA | 0.982 ± 0.014
ATCTGCTAGG | 1.01 ± 0.031
GGGAATGGAT | 1.01 ± 0.029
AATTGGAGGG | 1 ± 0.029
TTTTAGTTAT | 1.04 ± 0.037
CCATGTTGCG | 0.982 ± 0.012
CCTGGGGTCT | 1.03 ± 0.015
TTATGTGATA | 0.95571 ± 0.00088
TTGGGATGGG | 0.998 ± 0.015
TCATGGGATG | 1.02 ± 0.018
AGGTTTTGCA | 0.991 ± 0.019

Sequence | switch fluorescence ratio
GGGGTTAATA | 1 ± 0.067
GCGGCTGGGA | 1.047 ± 0.0092
TGAAAAAGGG | 1.04 ± 0.027
CGGGGATAGG | 1.041 ± 0.0075
GCTGCGCCGT | 1.004 ± 0.0092
TCGGTCCGAT | 0.9997 ± 0.005
AGAAGCAGG | 1.21 ± 0.26
CGATTTTGTT | 0.989 ± 0.034
TTTCGCTCTT | 1.12 ± 0.25
GGGCTCTAAA | 1 ± 0.018
TAAAGTCATA | 1.01 ± 0.022
AAGATCTCTA | 1.01 ± 0.015
CGGGATTAGC | 0.983 ± 0.022
CTTGATGCGA | 1.032 ± 0.0045
AGGATTAGCT | 0.999 ± 0.042
GCTGTAGTTT | 0.973 ± 0.015
CAAGGTCCAG | 1 ± 0.041
AGGGTTATAA | 0.969 ± 0.033
AGACATGGGT | 1.02 ± 0.033
TATGGCGGAG | 0.9975 ± 0.0061
TACTTGGAAC | 1.04 ± 0.012
ACCTGCTAAC | 1.59 ± 0.024
ATGCATGCGT | 1 ± 0.048

Sequence | switch fluorescence ratio
TCAGGGCTAG | 0.9837 ± 0.0093
AGAGCCTGGG | 1.04 ± 0.02
CCTAGGGGTT | 1.09 ± 0.064
CCAAGGAAAA | 1.04 ± 0.17
ATGTGTCTG | 0.987 ± 0.014
CTGTTTTGGG | 1.03 ± 0.032
AGATGTGTCT | 1.02 ± 0.003
GGAGTTGCGG | 0.9089 ± 0.0048
TGGGTGGCTC | 1.011 ± 0.0015
TTTAACTGCG | 1.02 ± 0.036
ATTACATTTT | 1.03 ± 0.031
TTTGGCCGCT | 0.985 ± 0.011
GATATGGAAG | 1.13 ± 0.23
TGTTTTAACT | 1.01 ± 0.017
TTACATGATG | 1.01 ± 0.013
TTGCTATGTT | 1.01 ± 0.037
CGTAATGCCT | 1.03 ± 0.098
GGATTATTG | 0.98 ± 0.032
TTATGGTCCG | 0.976 ± 0.045
TAGGGGGAGT | 0.962 ± 0.059
TGTTGGTTGC | 0.988 ± 0.033
TTGGTAGGGG | 1.03 ± 0.077
GGGATTGGGT | 1.01 ± 0.021

Sequence | switch fluorescence ratio
ACACTTGCCA | 1.09 ± 0.019
GATGGGAAAT | 1 ± 0.012
CTTCATGGGT | 0.962 ± 0.013
AAAGGGTGGC | 1.01 ± 0.028
CGAAAGCAGG | 1.1681 ± 0.00099
TTAGGATGTA | 1.005 ± 0.0095
TTTGGGATCA | 0.9846 ± 0.0073
CGGGCAGTTT | 1.03 ± 0.041
TGTGCCTGTT | 1.008 ± 0.0018
TTTATTTGCT | 0.9809 ± 0.0098
TTACATGTAA | 0.996 ± 0.023
GGACTGGTCG | 1 ± 0.022
CATGGATAGG | 1.011 ± 0.008
TTCCCGGCAG | 1.38 ± 0.47
CAAGGTCAGA | 1.018 ± 0.01
CAAAATTAAA | 0.958 ± 0.044
TAAAATAAAT | 1.016 ± 0.0018
CACGGAGGGG | 0.9875 ± 0.0095
TCGGGAGAGC | 1.04 ± 0.038
TCTGGCCGCG | 1.015 ± 0.0075
GAACACAAAA | 1.05 ± 0.032
AAGGTCGTCA | 0.9613 ± 0.0023
AACTTCGGTG | 0.984 ± 0.014

Sequence | switch fluorescence ratio
ATCAACACCG | 1.06 ± 0.034
TAGGTTTTTG | 1.01 ± 0.058
GGTTATAGGG | 0.9802 ± 0.008
GAGTAATGCG | 0.943 ± 0.066
CGTTATATCC | 1.06 ± 0.021
TCGGCATTAA | 1.37 ± 0.1
AAGGATTCGC | 1 ± 0.072
TTCTTGAGTA | 0.984 ± 0.019
GAAAAGAGTC | 1.07 ± 0.034
TACGGGCGGC | 1.05 ± 0.016
ATAGTCCTGG | 0.963 ± 0.019
TTGATCTGCT | 0.987 ± 0.023
GTCTTATGGC | 0.997 ± 0.011
GCCTACTGTT | 0.9855 ± 0.0094
GACTCAAGTT | 1.048 ± 0.0054
TGGGGTTAAA | 0.997 ± 0.016
CATATATTCT | 0.977 ± 0.033
TGCGGTTTTT | 0.998 ± 0.02
CCATTGTGAC | 1.06 ± 0.018
AGATTCTGTT | 0.945 ± 0.022
CCTGGGGTTG | 1.05 ± 0.14
AAATAGGGTA | 0.993 ± 0.023
TACTGCAATT | 1.35 ± 0.22

Sequence | switch fluorescence ratio
AAAAGGGTCG | 1.05 ± 0.087
CGTGTGTGCA | 1.004 ± 0.0024
GCTAAAAAGC | 0.998 ± 0.033
GGGTAGAGGA | 0.99 ± 0.03
TAACTTTTTT | 1.02 ± 0.042
ATGGGCTTCG | 1.01 ± 0.034
TCGTGCTGGG | 1 ± 0.067
GGTAATGGCA | 1.01 ± 0.039
TTGGCAGTG | 0.993 ± 0.019
GTTGGTTATG | 0.99 ± 0.041
ATATGGCTTT | 1.02 ± 0.013
GCTGCGGGGA | 0.9929 ± 0.0071
AGAAATGGGA | 0.987 ± 0.012
TTTTATTCTT | 0.987 ± 0.016
TTGAGCATAT | 2.12 ± 1.2
CAGTAGCTGT | 1.204 ± 0.0022
CTCAGTATTT | 1.01 ± 0.018
TAGGACGTGC | 0.9627 ± 0.0032
TGCGTAGGAA | 1.061 ± 0.0049
TTGGCGACAT | 1.02 ± 0.021
GGGGTGTCGG | 1.05 ± 0.14
TTAAAAAATG | 1.03 ± 0.042
TGATAGGGAG | 0.982 ± 0.019

Sequence | switch fluorescence ratio
GCGGGTTTTA | 1.006 ± 0.0083
AATCCGCGGA | 0.964 ± 0.013
TGGTTGTTAG | 1.012 ± 0.0073
CATCTAAGGC | 1.07 ± 0.049
GGGGATAGCG | 1 ± 0.018
CTAGGGCGCC | 0.975 ± 0.012
CATAGCAAGG | 1.66 ± 0.099
TTCCGTATTT | 1.15 ± 0.012
GGAGGTAGTC | 0.99 ± 0.033
AAGTTTGGTG | 0.986 ± 0.042
CTTTGTGATA | 1.04 ± 0.025
GGGTAAGATG | 0.992 ± 0.016
TAAGTGCGGA | 0.982 ± 0.011
ACCGCGGGCG | 1.069 ± 0.0053
TCAGTCGTGG | 0.9928 ± 0.0033
GGAGATATTT | 1 ± 0.011
TCGGGGGGTT | 0.998 ± 0.034
TTATGTATTT | 0.995 ± 0.015
TAGGGTACCG | 1.06 ± 0.032
